{"source": "patent US20240245805A1", "about": "(Orna Therapeutics, Inc., priority 2020, published 2024)", "data": [{"test_system": "HEK293 cells", "format": "cell-based, human", "conditions": "circular RNA encoding Gluc with the listed IRES (UTR truncated to 675 nt) transfected into HEK293 cells; supernatant after 24 hours", "values": [{"molecule": "HRVC3 QPM (nucleic acid, listed as Rhinovirus sp., lipid formulation) TTAAAGCTGGATCATGGTTGTTCCCACCATGATTACCCACGCGGTGCAGTGGTCTTGTATTACGGTACATTTCCATACCAGTTTTATACACCCCACCCCGAAACTCATAGAAGTTTGTACACAATGACCAATAGGTGGTGGCCATCCAGGTCGCTAATGGTCAAGCACTTCTGTTTCCCCGGCACCCTTGTATACGCTTCACCCGAGGCGAAAAATGAGGTTGTCGTTATCCGCAAAGTGCCTACGAAAAGCCTAGTAACACTTTGAAAACCCATGGTTGGTCGCTCAGCTGTTTACCCAACAGTAGACCTGGCAGATGAGGCTAGACATTCCCCACCAGCGATGGTGGTCTAGCCTGCGTGGCTGCCTGCACACCCTGCCGGGTGTGAAGCCAGAAAGTGGACAAGGTGTGAAGAGCCTATTGTGCTCACTTTGAGTCCTCCGGCCCCTGAATGTGGCTAACCCTAACCCCGTAGCTGTTGCATGTAACCCAACATGTATGCAGTCGTAATGGGCAACTATGGGATGGGACCAACTACTTTGGGTGTCCGTGTTTCCTGTTTTACTTTTTCATTGCTTATGGTGACAATTGTATCTGATACACTTGTTACC", "Expression (luminescence from secreted Gluc protein)": "1.64E+07"}, {"molecule": "Rabovirus A NYC-B10 (nucleic acid, lipid formulation; Rabovirus A) DNA: CCGACCCCACTGGTCGAAGGCCACTTGGCAATAAGACTGGTGGAACAAGGTCGCCTGTAGTTGATTGGAACCTTCTTTCTAATGACTTATGTCAGCGGTGCTACTCACACCGTAACTCTCCTACCCTATCCCCACGCTTGTGGAACTAGGAGGGGATGAGTGATTCAAGTAAGTACTGTCAGAATGGTGAAAATAATCTGATTCTGAAACGCTATGGATCCATCGAAAGATGGGGCTACACGCCTGCGGAACAACACATGGTAACATGTGCCCCAGGGGCCGAAAGCCACGGTGATAGGATCACCCGTGTAGTTTGAGATCATATCAATGTTCATAGTCTAGTAAGATGATTTGAAATCTAACTGGTCTGATGGCTAACTGCTTGTCTTATTGCGGCCTAAGGATGTCCTGCAGGTACCTTTAGAGAACCTTAAGAGACTATTGATCTGAGCAGGAGCCAAGGTGGTCTTTCCCAGCCTTGGTTAAAAAGCGTCTAAGCCGCGGCAGGGGGCGGGAGGCCCCCTTTCCTCCCAAACTATAATATAGATTGT", "Expression (luminescence from secreted Gluc protein)": "1.24E+06"}, {"molecule": "Parechovirus C (nucleic acid, lipid formulation; Parechovirus C) DNA: CGGTCATCCCCCTTTCCCCACAGCCGGTGTGGGTTCTAATCGGCTCCTACTAAACACCTAAGCATCACTGCGCCTCTATCTCTCCTATCCACAGGTCTAAGACGCTTGGAATAAGACATGTGGGTGCAATAGGAAGATTAGCTAGTCCAATCTCTCCTTCCAGCTACGCTTCTCCCTTCGATGAGCGTAGGGGGGGCCCCCACCTCCCTCATCTCTGGATAGGGCTCTTGCTACGGGGCTTTCCCGTCTGGACCAGCAGGCCCACTGGTGCGCTTCCATTCAAGTTTAGTGTGCATTACTGTCTGAAATATTGCTTTGCTAGGATCTAGTGTAGCGACCTGCATATTGCCAGCGGACTTCCCCACATGGTAACATGTGCCTCTGGGCCCAAAAGGCATGTCTTTGACCGTATGCAGTACAACCCCAGTATAGGTCCTTTCTATGGCAGTATGGATCTCAGTGATGAGTCTATACAGAATATGGAAGTGGTTCGGATATGTCAGCCCGAAGGATGCCCAGAAGGTACCCGCAGATAACCTTAAGAGACTGTGGATCTGATCTGGGGCCCACCACCTTCGGGTGGGTAGAAGCTAACCATGCCTTGGGTTAAAAAACGTCTAAGGGCTGACCAGACCCGGGGGATCCGGGTTTTCCCTATCTTGACCTACTCTAATC", "Expression (luminescence from secreted Gluc protein)": "1.24E+06"}, {"molecule": "Simian Sapelovirus 1 (nucleic acid, listed as Sapelovirus sp.) DNA: CCAAGGATCTGTTGCATAGGCGTTGTATCCCCTAACCTTTTACCTACCCATCCCAATAGGACTGGTATTTCGGTTTTGATTGAGTAATGGATACTGATTCTATACCTGTTACCCATTCAGGGGAAAAATGGAGTTTCTTTCATGGATCTGACTTGATATGACCAAGAGTCAACACTTTGCGTGTTGGCCGTATGGAATGCTTTAAGGTTTATTCTTTGGATTATGACTTCAGGGTTGGCCGCCCAGGATAAAAGGCAATTGTGGTAAGTGATGTTAGTCATTGGTGGTTGAAACCTGCCTAAGACGTCCTAGGTCTACGCTGTGCGGGCCGAAGTAAGCTTAGGAATAACAGGGAGTATGCCATTTTCTGCTTTCACCCAACACGACCGTACACGAAAGAGCTAGAGGCACTTTGGGGCAAAGGGAAAAGCTTTGCTTAGCCCGAATGTTCATTTGAGTCCTTGACGAATGCGTCCCGTCTGTCCCGACGGTGAGGCGTATGGCGCATGCTCATGGCATTACCCAATGGTGTATCTGTGAGGGGGGGGCTCCTCACACTTAGTCTAGTGCTACCTGACAGGGCCGCGGCTGGTCGTTTGTGTATGGTATAACCAGTAGTAATCCCCCATGGATTGCTTTAACTTCCCCTCCTCCCTTACCAAGACATTCTCTAAG", "Expression (luminescence from secreted Gluc protein)": "6.55E+07"}, {"molecule": "Simian Sapelovirus 2 (nucleic acid, listed as Sapelovirus sp.) DNA: TTTTAACTTGTTATGACATTCAAGGAAAAAATGTCTTTTTCATTATGGGACTGACCTGTTTATGAACATGAGCAGCGGCACTGCTCCACGGGCTATCCGTGTAAGAAATATTGATTATTCTTATGGATCATGATTTCAGGGTTGGCCGCCCAGTCTAAAAGGCAATTGTGGTAAGCTATGTAAGTAGTTGGCTGTTGAAAGGAGCCAAGTACATCCTAGGTCTACGCTGTGCGGGCCGAAGTAAGACTTGGAACAACTCTGAGTAGGCAGTTTTTCTCTTTAGCCCAACACGACCGCATACTGAAGAGCTAGAGGCACTTTGGGGCAAAGGTAAAAGCATTGCTTAGACCGAATGTTCAATGAGACCTTGACGAGTGCTGTCACAGTGTCCCCTGATGGCAGTATGGCGCATGCTCTTGGCATTACCCATATGTGTATCTATAGGGGGGGGGCCCCCTATACTTAGTCTAGTGCTACCTGACAGGGCCGCGGCTGGTCGTCGGTGTGTGGTATAACCAGTAGTAATCCCCCATGGATTGCTTTAACTCCCCCTCCTCCCTCAACAAAACTTTCTCTAAG", "Expression (luminescence from secreted Gluc protein)": "4.24E+07"}, {"molecule": "Felipivirus 127F (nucleic acid, listed as Felipivirus sp.) GATGTCGGATGACGGCTGGCCACCGGGGAAAAACGGCAAATGTGCACCACCTCTGCAACCCACGCCGACCACGTTTAACCATGGCGTTAGTAGGAGTGGACCACTGCAGTGGGCTCTGGTGTGCGACAGTCAGTGGTAGAGTAGACAGTCCTGACTGGGCAATGGGACCGCGTTGCGTATCCCTAGGTGGCATCGAGATTCCTCTGCTACCCACCAGCGTGGACTCCTATGGGGGGGGCCCCATAGGCTAGGTCTATACTGCCTGATAGGGTCGCGGCTGGTCGACCACTGACTGTATAACCAGTTGTAACTCACT", "Expression (luminescence from secreted Gluc protein)": "8.92E+06"}, {"molecule": "Parechovirus D (nucleic acid, lipid formulation; Parechovirus D) DNA: ACATGGGGCAGGTGTGCTGTGCCAAGAGCAACACTACGGTGGCCGAGCCGATGGTTCGTCACCACGTAGTAGGACTCCGTAGTGCTTGGTTACGGCGGACGTAAGTCAGTTGAGTGATGTCTAAGTGGCAAACCATGAGTACATGGTAACCTTGTGTGGACTCGCGGGACGGAATTTCCTATCCCATTGACTCCTTGTAGCAAGGTGGGTATACCCAACCACAATGGCAGCACCCTGGGTGGGAACCCAGGGGCCTGGATTAGTATCCAGTCACACAGCCTGATAGGGTGGCGGCTCAGCCACTGACCAGCGTCTCTAAATAATTGTGAGCTGTTCATGCACC", "Expression (luminescence from secreted Gluc protein)": "3.10E+05"}, {"molecule": "Parabovirus C (nucleic acid, lipid formulation; Parabovirus C) DNA: GATGTATCCCCATCCCCCAGTGTGTATGCCATACTGCATAGCTCGCCTATGCCCTATGGATTCACAACCCTTTCATATACCCTCCCTACCCAACCCCGTAACCACATGCTTTACTCCGCTTGGGGTTTTGCGGCCCCATGTTGTGACGAAATGGCTACGCAATCAATGCGGCTAATGGGGCCTGCCGCTTTTAAGTGGCCCCAGTTAGAAGTTTATGCACACCCGCCCATTAGGAGGCCACCAGCCAGGTGGTCAGAGGGCAAGCACTTCTGTTTCCCCGGTGAAGTTTGATAAGCTGTGCCCACGGCTGAAGCAGACAGATCCGTTACCCGCCTCACTACTACGAGACGGCTAGTAGTGTGTAATATCCGAATTTCATTGATCCGGGTGTTCCCCCCACCCAGAAACGTGTGATGAGGAGCGGCACCCCTCCTATGGCAACATAGGGCCTCTCCTGCGCTGGCACACGGGCTCTATGAGCATGAAATCAGGAGAAAGTCACACGAAGACCTTATTGTGCTAGTGTTGATTCCTCCGCCCCCCTGAATGCGGCTAATCCCAACTCCGGAGCGCCCGCTGGCAAACCCGCCAGAAGAGCGTCGTAATGCGTAAGTCTGGAGCGGAACCGACTACTTTGGGTGTGGCGTGTTTCCTTTATTTCCTTTGTATTTGTAT", "Expression (luminescence from secreted Gluc protein)": "1.83E+07"}, {"molecule": "HRVB27 (nucleic acid, listed as Rhinovirus sp., lipid formulation) TTAAAACAGCGGATGGGTATCCCACCATCCGACCCACAGGGTGTAGTGCTCTGGTATTTTGTACCTTTGCACGCCTGTTTCCCCATTGTACCCCTCCTTAAATTTCCTCCCCAAGTAACGTTAGAAGTTTAAGGAAACAAATGTACAATAGGAAGCATCACATCCAGTGGTGTTATGTACAAGCACTTCTGTTTCCCCGGAGCGAGGTATAAGTGGTACCCACCGCCGAAAGCCTTTAACCGTTATCCGCCAATCAACTACGTAATGGCTAGTATTACCATGTTTGTGACTTGGTGTTCGATCAGGTGGTTCCCCCCACTAGTTTGGTCGATGAGGCTAGGAACTCCCCACGGGTGACCGTGTCCTAGCCTGCGTGGCGGCCAACCCAGCTTTTGCTGGGACGCCTTTTTACAGACATGGTGTGAAGACCTGCATGTGCTTGATTGTGAGTCCTCCGGCCCCTGAATGCGGCTAACCTTAACCCCGGAGCCTTGCAACATAATCCAATGTTGTTGAGGTCGTAATGAGTAATTCTGGGATGGGACCGACTACTTTGGGTGTCCGTGTTTCCTTTTATTCTTTATATTGTCTTATGGTCACAGCATATATAGCATATATACTGTGATC", "Expression (luminescence from secreted Gluc protein)": "2.04E+08"}]}]}
